Numbering of substitutions follows the chain as printed. Names and notes keep the numbering of the source.
Tests used:
[1] = molecular target: T1, Noc (nucleoid occlusion protein) (Bacillus subtilis, UniProt P37524); test: ITC; format: binding
T1 construct: B. subtilis Noc (WT), His6-tagged

Noc (N121S) [2] = molecular target: T2, Noc (N121S) (Bacillus subtilis, UniProt P37524, N121S); test: ITC; format: binding
T2 construct: B. subtilis Noc (N121S), His6-tagged

[3] = molecular target: Geobacillus thermoleovorans NocNΔ26ΔCTD (Geobacillus thermoleovorans); test: crystal structure; G. thermoleovorans NocNΔ26ΔCTD, premixed with 1 mM CTPγS and 1 mM MgCl2 (no nucleotide in the density), 2.95 Å, space group C222(1), one copy per asymmetric unit; dimer with a symmetry mate
Noc (R89A) = molecular target: T3, Noc (R89A) (Bacillus subtilis, UniProt P37524 1-283, R89A); test: BLI; 1 mM CTP; nucleates, does not spread; BLI: 100 mM Tris-HCl pH 8.0, 150 mM NaCl, 1 mM MgCl2, 0.005% Tween 20, 22 C; 1 uM Noc dimer +/- 1 mM NTP; settings: protein: recombinant; tags: C-terminal His6; chain copies: 2; label: biotin on both ends; blunt
T3 sequence: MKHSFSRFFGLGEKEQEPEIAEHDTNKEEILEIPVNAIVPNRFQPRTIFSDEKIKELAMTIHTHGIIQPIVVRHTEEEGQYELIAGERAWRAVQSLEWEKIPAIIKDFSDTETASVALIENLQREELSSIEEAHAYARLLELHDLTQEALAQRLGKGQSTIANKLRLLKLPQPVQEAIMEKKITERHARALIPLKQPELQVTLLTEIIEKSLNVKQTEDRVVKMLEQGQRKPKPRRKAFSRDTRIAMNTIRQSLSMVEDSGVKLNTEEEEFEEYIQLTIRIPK

Noc (N121S) [4] = molecular target: T4, Noc (N121S) (Bacillus subtilis, UniProt P37524 1-283, N121S); test: as above; settings: protein: recombinant; tags: C-terminal His6; chain copies: 2; label: biotin on both ends; blunt
T4 sequence: T3 sequence with A89R, N121S

Noc [5] = molecular target: T5, Noc (Bacillus subtilis, UniProt P37524 1-283); test: BLI; 1 mM CTP; BLI: 100 mM Tris-HCl pH 8.0, 150 mM NaCl, 1 mM MgCl2, 0.005% Tween 20, 22 C; 1 uM Noc dimer +/- 1 mM NTP; settings: protein: recombinant; tags: C-terminal His6; chain copies: 2; label: biotin on both ends; blunt
T5 sequence: T3 sequence with A89R

Noc [6] = molecular target: T5, Noc; test: BLI; 1 uM Noc; 1 mM CTP; BLI: 100 mM Tris-HCl pH 8.0, 150 mM NaCl, 1 mM MgCl2, 0.005% Tween 20, 22 C; 1 uM Noc dimer +/- 1 mM NTP; settings: protein: recombinant; tags: C-terminal His6; chain copies: 2; label: biotin on both ends; blunt
Noc [7] = molecular target: T5, Noc; test: BLI; 1 mM CTP; no increase beyond nucleation; BLI: 100 mM Tris-HCl pH 8.0, 150 mM NaCl, 1 mM MgCl2, 0.005% Tween 20, 22 C; 1 uM Noc dimer +/- 1 mM NTP; settings: protein: recombinant; tags: C-terminal His6; chain copies: 2; label: biotin at M13F end; 5' overhang 4 nt (GATC) at BamHI end
[8] = molecular target: the molecule itself; test: cross-linking; BMOE (1 mM) cysteine crosslinking of 10 uM Noc variant ± 1 mM NTP ± 1 uM 22 bp NBS/parS DNA; 10 mM Tris-HCl pH 7.4, 200 mM NaCl, 1 mM MgCl2; 10 min at 22°C; SDS-PAGE, Coomassie, band quantification; reads self-engagement of the N-terminal domain

T2 sequence (P37524 whole entry N121S): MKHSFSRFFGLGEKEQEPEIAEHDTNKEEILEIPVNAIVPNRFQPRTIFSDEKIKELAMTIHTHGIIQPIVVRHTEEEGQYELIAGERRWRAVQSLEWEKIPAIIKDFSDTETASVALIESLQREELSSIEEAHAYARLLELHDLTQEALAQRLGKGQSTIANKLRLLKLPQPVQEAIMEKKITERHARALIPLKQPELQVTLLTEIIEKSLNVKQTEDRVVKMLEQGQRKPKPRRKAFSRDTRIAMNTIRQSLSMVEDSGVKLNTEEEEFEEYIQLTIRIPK
T1 sequence (P37524 whole entry): as the sequence (P37524 whole entry N121S) above, with S121N counted along it

**Q.** Which results are given for `Nc1ccn([C@@H]2O[C@H](COP(=O)(O)OP(=O)(O)OP(O)(O)=S)[C@@H](O)[C@H]2O)c(=O)n1` [CTPɣS]?
**A.** Kd [1]: 68 ± 23 µM; Kd (Noc (N121S) [2]): 232 ± 66 µM

**Q.** Which stoichiometry N [3] does the source give for “Geobacillus thermoleovorans NocNΔ26ΔCTD (domain or fragment)” here?
**A.** Its stoichiometry N is 2.

B1: 170 bp NBS DNA, closed (dsDNA)
DNA 1: CGCCAGGGTTTTCCCAGTCACGACGTTGTAAAACGACGGCCAGAATTCGCAACGTGTATTTCCCGGGAAATAGCCTTGAACTGATAACGACTCTATCATTGATAGAGTGTTCTCTCCACGGGATCCCCAGGCATGCAAGCTTGGCGTAATCATGGTCATAGCTGTTTCCT
DNA 2: AGGAAACAGCTATGACCATGATTACGCCAAGCTTGCATGCCTGGGGATCCCGTGGAGAGAACACTCTATCAATGATAGAGTCGTTATCAGTTCAAGGCTATTTCCCGGGAAATACACGTTGCGAATTCTGGCCGTCGTTTTACAACGTCGTGACTGGGAAAACCCTGGCG
**Q.** Which results are given for B1?
**A.** binding result (Noc (R89A)): binds; binding result (Noc (N121S) [4]): binds; binding signal (Noc [5]): ~6 fold BLI response vs no CTP

B2: 170 bp parS DNA, closed (dsDNA)
DNA 1: B1 DNA 1 with A58G, C63A, G66T, T71C
DNA 2: B1 DNA 2 with A100G, C105A, G108T, T113C
**Q.** Does B2 bind (Noc [6])?
**A.** Result: no binding

B3: 170 bp NBS DNA, BamHI-cut (open) (dsDNA)
DNA 1: CGCCAGGGTTTTCCCAGTCACGACGTTGTAAAACGACGGCCAGAATTCGCAACGTGTATTTCCCGGGAAATAGCCTTGAACTGATAACGACTCTATCATTGATAGAGTGTTCTCTCCACGG
DNA 2: GATCCCGTGGAGAGAACACTCTATCAATGATAGAGTCGTTATCAGTTCAAGGCTATTTCCCGGGAAATACACGTTGCGAATTCTGGCCGTCGTTTTACAACGTCGTGACTGGGAAAACCCTGGCG
**Q.** Does B3 bind (Noc [7])?
**A.** Result: binds

B4: B. subtilis NocNΔ10 (E29C) (domain or fragment, Bacillus subtilis, UniProt P37524 11-283, looked up)
chain: LGEKEQEPEIAEHDTNKECILEIPVNAIVPNRFQPRTIFSDEKIKELAMTIHTHGIIQPIVVRHTEEEGQYELIAGERRWRAVQSLEWEKIPAIIKDFSDTETASVALIENLQREELSSIEEAHAYARLLELHDLTQEALAQRLGKGQSTIANKLRLLKLPQPVQEAIMEKKITERHARALIPLKQPELQVTLLTEIIEKSLNVKQTEDRVVKMLEQGQRKPKPRRKAFSRDTRIAMNTIRQSLSMVEDSGVKLNTEEEEFEEYIQLTIRIPK
**Q.** Does B4 bind [8]?
**A.** Result: binds

From paper PMC8429893, “CTP regulates membrane-binding activity of the nucleoid occlusion protein Noc” (Molecular Cell, 2021)
